Assay results as given in patent US6709838.

Target: human Ptch (SEQ ID NO:4), overexpressed on transfected human 293 embryonic kidney cells (human) (UniProt Q13635)
Test: Scatchard analysis of 125I-Shh displacement curves, 293 cells expressing Ptch

Substance	Kd [nM]
Dhh (SEQ ID NO:13) (from UniProt Q61488 23-198) (ligand)	2.6
Shh (SEQ ID NO:14), 19kD amino terminal fragment of murine Shh (from UniProt Q62226 25-198) (ligand)	1
Ihh (SEQ ID NO:29) (from UniProt P97812 28-202) (ligand)	1
